The chains are these.
B1: FR21 (antibody, human IgG1, kappa, V domains shown)
VH: QVQLVQSGAEVKKPGSSVKVSCKASGYIFTTYNVHWVRQAPGQGLEWIGSIYPDNGDTSYNQNFKGRATITADKSTSTAYMELSSLRSEDTAVYYCARGDFAYWGQGTLVTVSS
VL: DIQMTQSPSSLSASVGDRVTITCKASQGVSNDVAWYQQKPGKAPKLLIYSASYRYTGVPSRFSGSGSGTDFTFTISSLQPEDIATYYCQQHSTTPYTFGQGTKLEIKR
notes: also called positive control antibody FR21; positive monoclonal antibody FR21
B2: 3H9-VH1-VL1 (antibody, human IgG1, kappa, V domains shown)
VH: QVQLVQSGAEVKKPGASVKVSCKASGYTFTFYNMHWVRQAPGQGLEWIGLIYPDNGDTSYNQKFKGRATLTADTSTSTVYMELSSLRSEDTAVYYCARGGLDYWGQGTTVTVSS
VL: DIQMTQSPSSLSASVGDRVTITCRASENIYSNLAWYQQKPGKSPKLLIYAATNLADGVPSRFSGSGSGTDYTLTISSLQPEDFATYYCQHFWGTPYTFGGGTKVEIKR
notes: humanized IgG1
B3: 3H9-VH3-VL0 (antibody, human IgG1, kappa, V domains shown)
VH: B2 VH with T30S, R38K
VL: B2 VL with S43A, Y71F
notes: humanized IgG1
B4: 3H9-VH1-VL2 (antibody, human IgG1, kappa)
heavy: not shown
light: DIQMTQSPSSLSASVGDRVTITCRASENIYSNLAWYQQKPGKSPKLLVYAATNLADGVPSRFSGSGSGTDYTLTISSLQPEDFATYYCQHFWGTPYTFGGGTKVEIKRTVAAPSVFIFPPSDEQLKSGTASVVCLLNNFYPREAKVQWKVDNALQSGNSQESVTEQDSKDSTYSLSSTLTLSKADYEKHKVYACEVTHQGLSSPVTKSFNRGEC
notes: humanized IgG1
B5: 3H9-VH0-VL0 (antibody, human IgG1, kappa, V domains shown)
VH: B2 VH with I48M
VL: B2 VL with S43A, Y71F
notes: humanized IgG1
B6: 3H9-VH0-VL1 (antibody, human IgG1, kappa, V domains shown)
VH: B2 VH with I48M
VL: B2 VL
notes: humanized IgG1
B7: 3H9-VH3-VL2 (antibody, human IgG1, kappa)
heavy: not shown
light: B4 light
notes: humanized IgG1
B8: 3H9-VH2-VL0 (antibody, human IgG1, kappa, V domains shown)
VH: B2 VH with T30S
VL: B2 VL with S43A, Y71F
notes: humanized IgG1
B9: 3H9-VH1-VL3 (antibody, human IgG1, kappa)
heavy: not shown
light: B4 light with V104L
notes: humanized IgG1
B10: 3H9-VH2-VL3 (antibody, human IgG1, kappa)
heavy: not shown
light: B4 light with V104L
notes: humanized IgG1
B11: 3H9-VH3-VL1 (antibody, human IgG1, kappa, V domains shown)
VH: B2 VH with T30S, R38K
VL: B2 VL
notes: humanized IgG1
B12: 3H9-VH2-VL2 (antibody, human IgG1, kappa)
heavy: not shown
light: B4 light
notes: humanized IgG1
B13: 3H9-VH0-VL3 (antibody, human IgG1, kappa)
heavy: not shown
light: B4 light with V104L
notes: humanized IgG1
B14: 3H9-VH2-VL1 (antibody, human IgG1, kappa, V domains shown)
VH: B2 VH with T30S
VL: B2 VL
notes: humanized IgG1
B15: 3H9-VH3-VL3 (antibody, human IgG1, kappa)
heavy: not shown
light: B4 light with V104L
notes: humanized IgG1
B16: 3H9-VH0-VL2 (antibody, human IgG1, kappa)
heavy: not shown
light: B4 light
notes: humanized IgG1
B17: 3H9-VH1-VL0 (antibody, human IgG1, kappa, V domains shown)
VH: B2 VH
VL: B2 VL with S43A, Y71F
notes: humanized IgG1
B18: 3C7-VH2-VL2 (antibody, human IgG1, kappa, V domains shown)
VH: QVQLVQSGAEVKKPGASVKVSCKASGYIFRNYYIHWVRQAPGQGLEWMGAIYPDNGDTSYNQRFKVRATLTADTSTSTVYMELSSLRSEDTAVYYCARAFTYWGQGTTVTVSS
VL: DIQMTQSPSSLSASVGDRVTITCGASENIYGALNWYQRKPGKAPKLLIYGATNLADGVPSRFSGSGSGTDYTLTISSLQPEDFATYYCQNVLSTPYTFGGGTKLEIKR
notes: humanized IgG1
B19: 3C7-VH1-VL2 (antibody, human IgG1, kappa, V domains shown)
VH: B18 VH with R30T
VL: B18 VL
notes: humanized IgG1
B20: 3C7-VH0-VL2 (antibody, human IgG1, kappa, V domains shown)
VH: B18 VH with I28T, R30T
VL: B18 VL
notes: humanized IgG1
B21: 3C7-VH0-VL0 (antibody, human IgG1, kappa, V domains shown)
VH: B18 VH with I28T, R30T
VL: B18 VL with G24R, R38Q, Y71F, L104V
notes: humanized IgG1
B22: 3C7-VH0-VL1 (antibody, human IgG1, kappa, V domains shown)
VH: B18 VH with I28T, R30T
VL: B18 VL with R38Q, F83V, L104V
notes: humanized IgG1

Substitutions are numbered along the chain they refer to.

What is called Kd is the constant that tells how readily two partners part at equilibrium. Read a high Kd as lower affinity. As a reminder, the koff is a measure of how fast the partners let go of each other. A lower koff goes with a long-lived complex. For orientation: kon means the rate constant with which the complex forms. Low readings indicate slow association, high ones fast association. By EC50 is commonly meant the midpoint of the concentration-response curve.

T2 sequence (P21802 other isoform, or with tags, fused parts or gaps): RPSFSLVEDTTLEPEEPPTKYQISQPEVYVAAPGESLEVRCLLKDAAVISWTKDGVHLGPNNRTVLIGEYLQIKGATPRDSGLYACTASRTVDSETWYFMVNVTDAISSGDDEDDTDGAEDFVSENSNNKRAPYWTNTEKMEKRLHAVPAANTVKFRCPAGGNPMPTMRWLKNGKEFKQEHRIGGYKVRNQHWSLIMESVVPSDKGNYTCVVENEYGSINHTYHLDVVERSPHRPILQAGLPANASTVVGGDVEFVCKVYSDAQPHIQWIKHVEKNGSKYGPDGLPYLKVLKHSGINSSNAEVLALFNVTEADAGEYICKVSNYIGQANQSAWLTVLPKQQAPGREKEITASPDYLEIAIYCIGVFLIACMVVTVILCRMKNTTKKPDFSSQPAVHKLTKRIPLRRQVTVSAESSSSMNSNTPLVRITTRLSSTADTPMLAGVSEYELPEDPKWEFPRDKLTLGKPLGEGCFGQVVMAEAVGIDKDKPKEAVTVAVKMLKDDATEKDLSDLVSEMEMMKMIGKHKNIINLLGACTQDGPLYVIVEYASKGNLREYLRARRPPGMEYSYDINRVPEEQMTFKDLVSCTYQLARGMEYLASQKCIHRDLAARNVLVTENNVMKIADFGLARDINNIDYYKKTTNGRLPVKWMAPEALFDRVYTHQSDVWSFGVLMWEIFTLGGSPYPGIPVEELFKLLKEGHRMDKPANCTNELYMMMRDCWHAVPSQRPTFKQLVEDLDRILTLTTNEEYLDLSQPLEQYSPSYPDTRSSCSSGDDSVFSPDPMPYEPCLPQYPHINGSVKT

For the first assay, the target named is T1, human FGFR2b (Kaixia Biotechnology, catalog number FGR-HM1BB) (human, UniProt P21802-3 22-378).
T1 construct: extracellular domain; bought; also called hFGFR2b; human FGFR2b protein
T1 sequence (P21802 other isoform, or with tags, fused parts or gaps): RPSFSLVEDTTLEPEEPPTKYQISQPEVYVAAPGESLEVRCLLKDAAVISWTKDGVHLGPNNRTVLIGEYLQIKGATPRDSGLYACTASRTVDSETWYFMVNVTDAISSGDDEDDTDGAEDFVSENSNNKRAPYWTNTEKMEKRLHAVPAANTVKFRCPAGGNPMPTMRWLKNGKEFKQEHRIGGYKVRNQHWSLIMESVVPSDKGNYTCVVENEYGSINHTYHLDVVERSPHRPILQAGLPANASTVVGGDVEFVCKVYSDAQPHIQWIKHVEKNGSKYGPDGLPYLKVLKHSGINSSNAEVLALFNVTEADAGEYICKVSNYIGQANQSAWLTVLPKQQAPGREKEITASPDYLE
As to the kind of experiment: BLI, antibody on AHC2 sensor. (Biolayer interferometry detects binding as a change in optical thickness at a sensor tip.)
In the case of B1, the Kd amounted to 1.52 nM, the koff was 0.000424 s⁻¹ and the kon was 279000 M⁻¹ s⁻¹.
In turn, B2 had a Kd of 8.5 nM, a dissociation rate constant (koff) of 0.00241 s⁻¹ and an on-rate (kon) of 284000 M⁻¹ s⁻¹.
On the same counts, the results for B3 are 3.13 nM, 0.000935 s⁻¹ and 299000 M⁻¹ s⁻¹.
For B4, the dissociation constant (Kd) worked out at 5.37 nM, the koff is 0.00232 s⁻¹ and the kon was 432000 M⁻¹ s⁻¹.
As for B5, binding was characterised by a dissociation constant (Kd) of 6.51 nM, the dissociation rate constant (koff) stood at 0.00301 s⁻¹ and the association rate constant (kon) came to 463000 M⁻¹ s⁻¹.
With B6, binding was put at a Kd of 3.55 nM, the koff was found to be 0.00179 s⁻¹ and the kon is 505000 M⁻¹ s⁻¹.
In the same order, the values of B7 are 0.709 nM, 0.000373 s⁻¹ and 526000 M⁻¹ s⁻¹.
Molecule B8 registered an equilibrium dissociation constant (Kd) of 2.64 nM, an off-rate (koff) of 0.00125 s⁻¹ and a kon of 473000 M⁻¹ s⁻¹.
B9 returned a Kd of 5.05 nM, a koff of 0.00254 s⁻¹ and a kon of 503000 M⁻¹ s⁻¹.
Molecule B10 displayed a Kd of 1.37 nM, a dissociation rate constant (koff) of 0.000788 s⁻¹ and a kon of 575000 M⁻¹ s⁻¹.
The molecule B11 had a dissociation constant (Kd) of 0.614 nM, a koff of 0.000324 s⁻¹ and an association rate constant (kon) of 527000 M⁻¹ s⁻¹.
In the same order, the values of B12 are 1.9 nM, 0.000784 s⁻¹ and 412000 M⁻¹ s⁻¹.
With B13, the dissociation constant (Kd) is 5.09 nM, the dissociation rate constant (koff) is 0.00186 s⁻¹ and the on-rate (kon) is 366000 M⁻¹ s⁻¹.
With B14, the Kd was found to be 1.32 nM, the off-rate constant (koff) stood at 0.000752 s⁻¹ and the kon was 570000 M⁻¹ s⁻¹.
As to B15, the Kd was found to be 0.743 nM, the dissociation rate constant (koff) was found to be 0.000399 s⁻¹ and the kon was found to be 536000 M⁻¹ s⁻¹.
In the same order, the values of B16 are 5.06 nM, 0.00186 s⁻¹ and 367000 M⁻¹ s⁻¹.
In the same order, the values of B17 are 18.5 nM, 0.00433 s⁻¹ and 234000 M⁻¹ s⁻¹.
In the same order, the values of B18 are 2.03 nM, 0.000884 s⁻¹ and 435000 M⁻¹ s⁻¹.
Consider B19, for which the affinity, expressed as Kd, was 2.71 nM; the off-rate constant (koff) was 0.00115 s⁻¹; the association rate constant (kon) was 425000 M⁻¹ s⁻¹.
Consider B20, for which the affinity, expressed as Kd, was 11.6 nM; the koff is 0.00313 s⁻¹; the kon was determined as 269000 M⁻¹ s⁻¹.
The molecule B21 yielded a dissociation constant Kd of 10.4 nM, a koff of 0.00305 s⁻¹ and an on-rate constant (kon) of 293000 M⁻¹ s⁻¹.
For the molecule B22, the Kd worked out at 14 nM, the off-rate constant (koff) was found to be 0.00315 s⁻¹ and the association rate constant (kon) is 224000 M⁻¹ s⁻¹.

The next assay concerns the target T2, FGFR2b on KATO III cells (human, UniProt P21802-3 22-822).
T2 construct: whole, on cells; also called KATO III cells that overexpress FGFR2b
Description: flow cytometry, KATO III cells. (A flow cytometer gives signals particle by particle.)
B1 registered a half-maximal effective concentration (EC50) of 0.586 µg/mL.
The same measure, in the same setting: the figure for B2 is 0.379 µg/mL; for B3 it is 0.437 µg/mL; for B4 it is 0.0909 µg/mL.
Turning to B5, the EC50 is 0.336 µg/mL.
Same read-out and setting: the figure for B6 is 0.18 µg/mL; for B7 it is 0.231 µg/mL.
Turning to B8, the half-maximal effective concentration (EC50) worked out at 0.332 µg/mL.
In turn, B9 yielded an EC50 of 0.215 µg/mL.
Same read-out and setting: the value for B10 was 0.212 µg/mL; that for B11 was 0.357 µg/mL.
Regarding B12, the concentration giving a half-maximal response (EC50) came out at 0.337 µg/mL.
On the same count and under the same terms, the figure for B13 is 0.469 µg/mL.
The same measure, in the same setting: the value for B14 was 0.309 µg/mL.
Molecule B15 registered a half-maximal effective concentration (EC50) of 0.554 µg/mL.
Turning to B16, the concentration for a half-maximal effect (EC50) turned out to be 0.357 µg/mL.
B17 yielded a half-maximal effective concentration (EC50) of 0.378 µg/mL.
Still for that read-out and setting: the figure for B18 is 0.559 µg/mL.
Same read-out and setting: the figure for B19 is 0.601 µg/mL.
For the molecule B20, the concentration for a half-maximal effect (EC50) was found to be 0.528 µg/mL.
Still for that read-out and setting: the figure for B21 is 0.384 µg/mL.
The molecule B22 displayed an EC50 of 0.64 µg/mL.

These data come from patent EP4714976A1 (Sunshine Lake Pharma Co., Ltd., dated 2026).
